The RNAGym collection of RNA variant scans (doi:10.1093/molbev/msab373)

B1: Azoarcus group I ribozyme (parent)
chain: GUGCCUUGCGCCGGGAAACCACGCAAGGGAUGGUGUCAAAUUCGGCGAAACCUAAGCGCCCGCCCGGGCGUAUGGCAACGCCGAGCCAAGCUUCGGCGCCUGCGCCGAUGAAGGUGUAGAGACUAGACGGCACCCACCUAAGGCAAACGCUAUGGUGAAGGCAUAGUCCAGGGAGUGGCGAAAGUCACACAAACCGG

Variants of: B1
Test: reverse-splicing fitness (ratio to wild type); higher = more active; in vitro selection; Mg2+ level not given
Summary of the method: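 An in vitro group I ribozyme library with randomized positions was T7-transcribed and gel-purified. In triplicate, 10 pmol RNA in EPPS pH 7.5 was reacted with 50 pmoles of a 30-nt RNA substrate for 1 h at 37 °C across several added MgCl2 levels (1–48 mM), then stopped with EDTA. Products were reverse transcribed from a substrate-complementary primer, PCR-amplified and sequenced (HiSeq 4000). Fitness is a variant's read proportion after selection over that before, normalised to wild type.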

Question: Which reverse-splicing fitness does the source give for C82U A111C A120C A145C C150U U176G here?
Answer: 0.0052

Question: With C82U A111C A120C A145C C150U U176A as the variant, how does the reverse-splicing fitness read?
Answer: 0.00836

Question: Which reverse-splicing fitness does the source give for C82U A111C A120C A145C C150U U176C here?
Answer: 0.0102

Question: With C82U A111C A120C A145C U176A as the variant, how does the reverse-splicing fitness read?
Answer: 0.00981

Question: Which reverse-splicing fitness does the source give for C82U A111C A120C A145C U176C here?
Answer: 0.0155

Question: Which reverse-splicing fitness does the source give for C82U A111C A120C A145C U176G here?
Answer: 0.00562

Question: For C82U A111C A120C A145G C150U C169G, which reverse-splicing fitness is on record?
Answer: 0.00807

Question: Which reverse-splicing fitness does the source give for C82U A111C A120C A145G C150U C169A here?
Answer: 0.00905

Question: With C82U A111C A120C A145G C150U C169U as the variant, how does the reverse-splicing fitness read?
Answer: 0.012

Question: With C82U A111C A120C as the variant, how does the reverse-splicing fitness read?
Answer: 0.0271

Question: Which reverse-splicing fitness does the source give for C82U A111C A120C A145G C150G C169U here?
Answer: 0.00816

Question: For C82U A111C A120C A145G C150G C169A, which reverse-splicing fitness is on record?
Answer: 0.0079

Question: With C82U A111C A120C A145G C150G C169G as the variant, how does the reverse-splicing fitness read?
Answer: 0.00708

Question: Which reverse-splicing fitness does the source give for C82U A111C A120C A145G C150U U176C here?
Answer: 0.0186

Question: Which reverse-splicing fitness does the source give for C82U A111C A120C A145G C150U U176A here?
Answer: 0.0113

Question: Which reverse-splicing fitness does the source give for C82U A111C A120C A145G C150U U176G here?
Answer: 0.00635

Question: For C82U A111C, which reverse-splicing fitness is on record?
Answer: 0.251

Question: For C82U A111C A120C A145U C150A U176C, which reverse-splicing fitness is on record?
Answer: 0.0135

Question: For C82U A111C A120C A145U C150A U176A, which reverse-splicing fitness is on record?
Answer: 0.00905

Question: Which reverse-splicing fitness does the source give for C82U A111C A120C A145U C150A U176G here?
Answer: 0.00561

Question: With C82U A111C A120C A145C C150A C169A U176C as the variant, how does the reverse-splicing fitness read?
Answer: 0.00754

Question: Which reverse-splicing fitness does the source give for C82U A111C A120C A145C C150A C169A U176A here?
Answer: 0.0113

Question: Which reverse-splicing fitness does the source give for C82U A111C A120C A145C C150A C169A U176G here?
Answer: 0.00679

Question: With C82U A111C A120C A145G C150A as the variant, how does the reverse-splicing fitness read?
Answer: 0.01

Question: For C82U A111C A120C A145G C150U, which reverse-splicing fitness is on record?
Answer: 0.0229

Question: Which reverse-splicing fitness does the source give for C82U A111C A120C A145G C150G here?
Answer: 0.0102

Question: For C82U A111C A120C A145C C150A U176G, which reverse-splicing fitness is on record?
Answer: 0.00522

Question: With C82U A111C A120C A145C C150A U176A as the variant, how does the reverse-splicing fitness read?
Answer: 0.00991

Question: For C82U A111C A120C A145C C150A U176C, which reverse-splicing fitness is on record?
Answer: 0.0116

Question: Which reverse-splicing fitness does the source give for C82U A111C A120C A145C C169A U176G here?
Answer: 0.00387

Question: For C82U A111C A120C A145C C169A U176C, which reverse-splicing fitness is on record?
Answer: 0.00743

Question: Which reverse-splicing fitness does the source give for C82U A111C A120C A145C C169A U176A here?
Answer: 0.0111

Question: Which reverse-splicing fitness does the source give for C82U A111C A120C A145G C169G U176C here?
Answer: 0.0254

Question: For C82U A111C A120C A145G C169G U176A, which reverse-splicing fitness is on record?
Answer: 0.0195

Question: Which reverse-splicing fitness does the source give for C82U A111C A120C A145G C169G U176G here?
Answer: 0.0058

Question: For C82U A111C A120C A145C C150A C169A, which reverse-splicing fitness is on record?
Answer: 0.00737

Question: For C82U A111C A120C A145C C150A C169U, which reverse-splicing fitness is on record?
Answer: 0.00906

Question: Which reverse-splicing fitness does the source give for C82U A111C A120C A145C C150A C169G here?
Answer: 0.00647

Question: For C82U A111C A120C A145G U176G, which reverse-splicing fitness is on record?
Answer: 0.00588

Question: Which reverse-splicing fitness does the source give for C82U A111C A120C A145G U176A here?
Answer: 0.0134

Question: For C82U A111C A120C A145G U176C, which reverse-splicing fitness is on record?
Answer: 0.0243

Question: With C82U A111C A120C A145G C150A C169U U176C as the variant, how does the reverse-splicing fitness read?
Answer: 0.0172

Question: Which reverse-splicing fitness does the source give for C82U A111C A120C A145G C150A C169U U176A here?
Answer: 0.0176

Question: With C82U A111C A120C A145G C150A C169U U176G as the variant, how does the reverse-splicing fitness read?
Answer: 0.00639

Question: Which reverse-splicing fitness does the source give for C82U A111C A120C A145G C150A C169A U176C here?
Answer: 0.0198

Question: Which reverse-splicing fitness does the source give for C82U A111C A120C A145G C150A C169A U176A here?
Answer: 0.0163

Question: With C82U A111C A120C A145G C150A C169A U176G as the variant, how does the reverse-splicing fitness read?
Answer: 0.00718

Question: For C82U A111C A120C A145G C169A U176A, which reverse-splicing fitness is on record?
Answer: 0.0198

Question: With C82U A111C A120C A145G C169A U176C as the variant, how does the reverse-splicing fitness read?
Answer: 0.0232

Question: For C82U A111C A120C A145G C169A U176G, which reverse-splicing fitness is on record?
Answer: 0.00658

Question: Which reverse-splicing fitness does the source give for C82U A111C A120C A145U C150A C169G here?
Answer: 0.00745

Question: With C82U A111C A120C A145U C150A C169U as the variant, how does the reverse-splicing fitness read?
Answer: 0.0101

Question: For C82U A111C A120C A145U C150A C169A, which reverse-splicing fitness is on record?
Answer: 0.00776

Question: Which reverse-splicing fitness does the source give for C82U A111C A120C A145G C150G U176G here?
Answer: 0.00622

Question: With C82U A111C A120C A145G C150G U176C as the variant, how does the reverse-splicing fitness read?
Answer: 0.00988

Question: Which reverse-splicing fitness does the source give for C82U A111C A120C A145G C150G U176A here?
Answer: 0.00676

Question: For C82U A111C A120C A145U C150G C169G, which reverse-splicing fitness is on record?
Answer: 0.00628

Question: With C82U A111C A120C A145U C150G C169U as the variant, how does the reverse-splicing fitness read?
Answer: 0.00844

Question: For C82U A111C A120C A145U C150G C169A, which reverse-splicing fitness is on record?
Answer: 0.00863

Question: With C82U A111C A120C A145C C150A C169G U176C as the variant, how does the reverse-splicing fitness read?
Answer: 0.0151

Question: For C82U A111C A120C A145C C150A C169G U176A, which reverse-splicing fitness is on record?
Answer: 0.0253

Question: Which reverse-splicing fitness does the source give for C82U A111C A120C A145C C150A C169G U176G here?
Answer: 0.00588

Question: For C82U A111C A120C A145U C150G C169G U176C, which reverse-splicing fitness is on record?
Answer: 0.0066

Question: Which reverse-splicing fitness does the source give for C82U A111C A120C A145U C150G C169G U176G here?
Answer: 0.00558

Question: With C82U A111C A120C A145U C150G C169G U176A as the variant, how does the reverse-splicing fitness read?
Answer: 0.00759

Question: For C82U A111C A120C A145G C169A, which reverse-splicing fitness is on record?
Answer: 0.0092

Question: For C82U A111C A120C A145G C169G, which reverse-splicing fitness is on record?
Answer: 0.00841

Question: Which reverse-splicing fitness does the source give for C82U A111C A120C A145G C169U here?
Answer: 0.0129

Question: Which reverse-splicing fitness does the source give for C82G C169U U176G here?
Answer: 0.00463

Question: For C82U A111C A120C A145G C150A C169G, which reverse-splicing fitness is on record?
Answer: 0.00891

Question: Which reverse-splicing fitness does the source give for C82U A111C A120C A145G C150A C169U here?
Answer: 0.0103

Question: With C82U A111C A120C A145G C150A C169A as the variant, how does the reverse-splicing fitness read?
Answer: 0.00917

Question: With C82U A111C A120C A145G C150U C169U U176G as the variant, how does the reverse-splicing fitness read?
Answer: 0.00546

Question: For C82U A111C A120C A145G C150U C169U U176C, which reverse-splicing fitness is on record?
Answer: 0.0139

Question: Which reverse-splicing fitness does the source give for C82U A111C A120C A145G C150U C169U U176A here?
Answer: 0.0156

Question: Which reverse-splicing fitness does the source give for C82U A111C A120C A145C C150G C169G U176A here?
Answer: 0.00861

Question: Which reverse-splicing fitness does the source give for C82U A111C A120C A145C C150G C169G U176C here?
Answer: 0.00799

Question: Which reverse-splicing fitness does the source give for C82U A111C A120C A145C C150G C169G U176G here?
Answer: 0.00552

Question: Which reverse-splicing fitness does the source give for C82U A111C A120C A145C C150U C169A U176G here?
Answer: 0.00658

Question: With C82U A111C A120C A145C C150U C169A U176C as the variant, how does the reverse-splicing fitness read?
Answer: 0.00703

Question: Which reverse-splicing fitness does the source give for C82U A111C A120C A145C C150U C169A U176A here?
Answer: 0.012

Question: For C82U A111C A120C A145G C169U U176C, which reverse-splicing fitness is on record?
Answer: 0.0159

Question: With C82U A111C A120C A145G C169U U176G as the variant, how does the reverse-splicing fitness read?
Answer: 0.00573

Question: For C82U A111C A120C A145G C169U U176A, which reverse-splicing fitness is on record?
Answer: 0.0159
